Laboratory results from US20200297818A1 (ZEALAND PHARMA A S, published 2020).
Residue numbers refer to the chain shown, from its start.

T1: human GLP-2 receptor (hGLP2-R) (human, UniProt O95838 1-553)
T1 sequence (looked up): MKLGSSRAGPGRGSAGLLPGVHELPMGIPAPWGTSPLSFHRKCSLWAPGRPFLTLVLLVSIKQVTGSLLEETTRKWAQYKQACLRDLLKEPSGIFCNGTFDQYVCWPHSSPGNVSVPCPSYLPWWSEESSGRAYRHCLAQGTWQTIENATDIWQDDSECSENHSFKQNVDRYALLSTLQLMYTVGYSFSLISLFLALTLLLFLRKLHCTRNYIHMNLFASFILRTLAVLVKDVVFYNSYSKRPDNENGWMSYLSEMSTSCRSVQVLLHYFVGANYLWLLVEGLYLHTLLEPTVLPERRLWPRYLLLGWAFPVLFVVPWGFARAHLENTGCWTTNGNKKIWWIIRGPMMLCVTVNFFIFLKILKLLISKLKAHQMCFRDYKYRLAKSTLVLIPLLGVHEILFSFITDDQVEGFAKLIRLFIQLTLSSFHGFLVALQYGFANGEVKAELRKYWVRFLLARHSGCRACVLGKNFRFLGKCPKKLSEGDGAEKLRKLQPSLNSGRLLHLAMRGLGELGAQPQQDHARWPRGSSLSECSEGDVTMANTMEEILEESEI

B1: Compound 9 (peptide)
peptide: HXEGTFTSELATILDGXAARDFIAWLIEHKITD
HELM: PEPTIDE1{H.[Aib].E.G.T.F.T.S.E.L.A.T.I.L.D.G.K.A.A.R.D.F.I.A.W.L.I.E.H.K.I.T.D}|PEPTIDE2{[O=C(O)CCCCCCCCCCCCCCCCC(=O)[*:2]].[gGlu]}$PEPTIDE1,PEPTIDE2,17:R3-2:R2$$$V2.0
SMILES: CC[C@H](C)[C@H](NC(=O)[C@H](Cc1ccccc1)NC(=O)[C@H](CC(=O)O)NC(=O)[C@H](CCCNC(=N)N)NC(=O)[C@H](C)NC(=O)[C@H](C)NC(=O)[C@H](CCCCNC(=O)CC[C@H](NC(=O)CCCCCCCCCCCCCCCCC(=O)O)C(=O)O)NC(=O)CNC(=O)[C@H](CC(=O)O)NC(=O)[C@H](CC(C)C)NC(=O)[C@@H](NC(=O)[C@@H](NC(=O)[C@H](C)NC(=O)[C@H](CC(C)C)NC(=O)[C@H](CCC(=O)O)NC(=O)[C@H](CO)NC(=O)[C@@H](NC(=O)[C@H](Cc1ccccc1)NC(=O)[C@@H](NC(=O)CNC(=O)[C@H](CCC(=O)O)NC(=O)C(C)(C)NC(=O)[C@@H](N)Cc1c[nH]cn1)[C@@H](C)O)[C@@H](C)O)[C@@H](C)O)[C@@H](C)CC)C(=O)N[C@@H](C)C(=O)N[C@@H](Cc1c[nH]c2ccccc12)C(=O)N[C@@H](CC(C)C)C(=O)N[C@H](C(=O)N[C@@H](CCC(=O)O)C(=O)N[C@@H](Cc1c[nH]cn1)C(=O)N[C@@H](CCCCN)C(=O)N[C@H](C(=O)N[C@H](C(=O)N[C@@H](CC(=O)O)C(=O)O)[C@@H](C)O)[C@@H](C)CC)[C@@H](C)CC
B2: Compound 14 (peptide)
peptide: B1 peptide with T5S, G16X, X17L, E28A
HELM: PEPTIDE1{H.[Aib].E.G.S.F.T.S.E.L.A.T.I.L.D.K.L.A.A.R.D.F.I.A.W.L.I.A.H.K.I.T.D}|PEPTIDE2{[O=C(O)CCCCCCCCCCCCCCCCC(=O)[*:2]].[gGlu]}$PEPTIDE1,PEPTIDE2,16:R3-2:R2$$$V2.0
SMILES: CC[C@H](C)[C@H](NC(=O)[C@H](CC(C)C)NC(=O)[C@H](Cc1c[nH]c2ccccc12)NC(=O)[C@H](C)NC(=O)[C@@H](NC(=O)[C@H](Cc1ccccc1)NC(=O)[C@H](CC(=O)O)NC(=O)[C@H](CCCNC(=N)N)NC(=O)[C@H](C)NC(=O)[C@H](C)NC(=O)[C@H](CC(C)C)NC(=O)[C@H](CCCCNC(=O)CC[C@H](NC(=O)CCCCCCCCCCCCCCCCC(=O)O)C(=O)O)NC(=O)[C@H](CC(=O)O)NC(=O)[C@H](CC(C)C)NC(=O)[C@@H](NC(=O)[C@@H](NC(=O)[C@H](C)NC(=O)[C@H](CC(C)C)NC(=O)[C@H](CCC(=O)O)NC(=O)[C@H](CO)NC(=O)[C@@H](NC(=O)[C@H](Cc1ccccc1)NC(=O)[C@H](CO)NC(=O)CNC(=O)[C@H](CCC(=O)O)NC(=O)C(C)(C)NC(=O)[C@@H](N)Cc1c[nH]cn1)[C@@H](C)O)[C@@H](C)O)[C@@H](C)CC)[C@@H](C)CC)C(=O)N[C@@H](C)C(=O)N[C@@H](Cc1c[nH]cn1)C(=O)N[C@@H](CCCCN)C(=O)N[C@H](C(=O)N[C@H](C(=O)N[C@@H](CC(=O)O)C(=O)O)[C@@H](C)O)[C@@H](C)CC
B3: Compound 10 (peptide)
peptide: B1 peptide with T7S, G16X, X17L
HELM: PEPTIDE1{H.[Aib].E.G.T.F.S.S.E.L.A.T.I.L.D.K.L.A.A.R.D.F.I.A.W.L.I.E.H.K.I.T.D}|PEPTIDE2{[O=C(O)CCCCCCCCCCCCCCCCC(=O)[*:2]].[gGlu]}$PEPTIDE1,PEPTIDE2,16:R3-2:R2$$$V2.0
SMILES: CC[C@H](C)[C@H](NC(=O)[C@H](Cc1ccccc1)NC(=O)[C@H](CC(=O)O)NC(=O)[C@H](CCCNC(=N)N)NC(=O)[C@H](C)NC(=O)[C@H](C)NC(=O)[C@H](CC(C)C)NC(=O)[C@H](CCCCNC(=O)CC[C@H](NC(=O)CCCCCCCCCCCCCCCCC(=O)O)C(=O)O)NC(=O)[C@H](CC(=O)O)NC(=O)[C@H](CC(C)C)NC(=O)[C@@H](NC(=O)[C@@H](NC(=O)[C@H](C)NC(=O)[C@H](CC(C)C)NC(=O)[C@H](CCC(=O)O)NC(=O)[C@H](CO)NC(=O)[C@H](CO)NC(=O)[C@H](Cc1ccccc1)NC(=O)[C@@H](NC(=O)CNC(=O)[C@H](CCC(=O)O)NC(=O)C(C)(C)NC(=O)[C@@H](N)Cc1c[nH]cn1)[C@@H](C)O)[C@@H](C)O)[C@@H](C)CC)C(=O)N[C@@H](C)C(=O)N[C@@H](Cc1c[nH]c2ccccc12)C(=O)N[C@@H](CC(C)C)C(=O)N[C@H](C(=O)N[C@@H](CCC(=O)O)C(=O)N[C@@H](Cc1c[nH]cn1)C(=O)N[C@@H](CCCCN)C(=O)N[C@H](C(=O)N[C@H](C(=O)N[C@@H](CC(=O)O)C(=O)O)[C@@H](C)O)[C@@H](C)CC)[C@@H](C)CC
B4: Compound 13 (peptide)
peptide: B1 peptide with T7S, G16X, X17L, E28A
HELM: PEPTIDE1{H.[Aib].E.G.T.F.S.S.E.L.A.T.I.L.D.K.L.A.A.R.D.F.I.A.W.L.I.A.H.K.I.T.D}|PEPTIDE2{[O=C(O)CCCCCCCCCCCCCCCCC(=O)[*:2]].[gGlu]}$PEPTIDE1,PEPTIDE2,16:R3-2:R2$$$V2.0
SMILES: CC[C@H](C)[C@H](NC(=O)[C@H](CC(C)C)NC(=O)[C@H](Cc1c[nH]c2ccccc12)NC(=O)[C@H](C)NC(=O)[C@@H](NC(=O)[C@H](Cc1ccccc1)NC(=O)[C@H](CC(=O)O)NC(=O)[C@H](CCCNC(=N)N)NC(=O)[C@H](C)NC(=O)[C@H](C)NC(=O)[C@H](CC(C)C)NC(=O)[C@H](CCCCNC(=O)CC[C@H](NC(=O)CCCCCCCCCCCCCCCCC(=O)O)C(=O)O)NC(=O)[C@H](CC(=O)O)NC(=O)[C@H](CC(C)C)NC(=O)[C@@H](NC(=O)[C@@H](NC(=O)[C@H](C)NC(=O)[C@H](CC(C)C)NC(=O)[C@H](CCC(=O)O)NC(=O)[C@H](CO)NC(=O)[C@H](CO)NC(=O)[C@H](Cc1ccccc1)NC(=O)[C@@H](NC(=O)CNC(=O)[C@H](CCC(=O)O)NC(=O)C(C)(C)NC(=O)[C@@H](N)Cc1c[nH]cn1)[C@@H](C)O)[C@@H](C)O)[C@@H](C)CC)[C@@H](C)CC)C(=O)N[C@@H](C)C(=O)N[C@@H](Cc1c[nH]cn1)C(=O)N[C@@H](CCCCN)C(=O)N[C@H](C(=O)N[C@H](C(=O)N[C@@H](CC(=O)O)C(=O)O)[C@@H](C)O)[C@@H](C)CC
B5: Compound 12 (peptide)
peptide: B1 peptide with G16X, X17L
HELM: PEPTIDE1{H.[Aib].E.G.T.F.T.S.E.L.A.T.I.L.D.K.L.A.A.R.D.F.I.A.W.L.I.E.H.K.I.T.D}|PEPTIDE2{[O=C(O)CCCCCCCCCCCCCCCCC(=O)[*:2]].[gGlu]}$PEPTIDE1,PEPTIDE2,16:R3-2:R2$$$V2.0
SMILES: CC[C@H](C)[C@H](NC(=O)[C@H](Cc1ccccc1)NC(=O)[C@H](CC(=O)O)NC(=O)[C@H](CCCNC(=N)N)NC(=O)[C@H](C)NC(=O)[C@H](C)NC(=O)[C@H](CC(C)C)NC(=O)[C@H](CCCCNC(=O)CC[C@H](NC(=O)CCCCCCCCCCCCCCCCC(=O)O)C(=O)O)NC(=O)[C@H](CC(=O)O)NC(=O)[C@H](CC(C)C)NC(=O)[C@@H](NC(=O)[C@@H](NC(=O)[C@H](C)NC(=O)[C@H](CC(C)C)NC(=O)[C@H](CCC(=O)O)NC(=O)[C@H](CO)NC(=O)[C@@H](NC(=O)[C@H](Cc1ccccc1)NC(=O)[C@@H](NC(=O)CNC(=O)[C@H](CCC(=O)O)NC(=O)C(C)(C)NC(=O)[C@@H](N)Cc1c[nH]cn1)[C@@H](C)O)[C@@H](C)O)[C@@H](C)O)[C@@H](C)CC)C(=O)N[C@@H](C)C(=O)N[C@@H](Cc1c[nH]c2ccccc12)C(=O)N[C@@H](CC(C)C)C(=O)N[C@H](C(=O)N[C@@H](CCC(=O)O)C(=O)N[C@@H](Cc1c[nH]cn1)C(=O)N[C@@H](CCCCN)C(=O)N[C@H](C(=O)N[C@H](C(=O)N[C@@H](CC(=O)O)C(=O)O)[C@@H](C)O)[C@@H](C)CC)[C@@H](C)CC
B6: Compound 11 (peptide)
peptide: B1 peptide with T5S, G16X, X17L
HELM: PEPTIDE1{H.[Aib].E.G.S.F.T.S.E.L.A.T.I.L.D.K.L.A.A.R.D.F.I.A.W.L.I.E.H.K.I.T.D}|PEPTIDE2{[O=C(O)CCCCCCCCCCCCCCCCC(=O)[*:2]].[gGlu]}$PEPTIDE1,PEPTIDE2,16:R3-2:R2$$$V2.0
SMILES: CC[C@H](C)[C@H](NC(=O)[C@H](Cc1ccccc1)NC(=O)[C@H](CC(=O)O)NC(=O)[C@H](CCCNC(=N)N)NC(=O)[C@H](C)NC(=O)[C@H](C)NC(=O)[C@H](CC(C)C)NC(=O)[C@H](CCCCNC(=O)CC[C@H](NC(=O)CCCCCCCCCCCCCCCCC(=O)O)C(=O)O)NC(=O)[C@H](CC(=O)O)NC(=O)[C@H](CC(C)C)NC(=O)[C@@H](NC(=O)[C@@H](NC(=O)[C@H](C)NC(=O)[C@H](CC(C)C)NC(=O)[C@H](CCC(=O)O)NC(=O)[C@H](CO)NC(=O)[C@@H](NC(=O)[C@H](Cc1ccccc1)NC(=O)[C@H](CO)NC(=O)CNC(=O)[C@H](CCC(=O)O)NC(=O)C(C)(C)NC(=O)[C@@H](N)Cc1c[nH]cn1)[C@@H](C)O)[C@@H](C)O)[C@@H](C)CC)C(=O)N[C@@H](C)C(=O)N[C@@H](Cc1c[nH]c2ccccc12)C(=O)N[C@@H](CC(C)C)C(=O)N[C@H](C(=O)N[C@@H](CCC(=O)O)C(=O)N[C@@H](Cc1c[nH]cn1)C(=O)N[C@@H](CCCCN)C(=O)N[C@H](C(=O)N[C@H](C(=O)N[C@@H](CC(=O)O)C(=O)O)[C@@H](C)O)[C@@H](C)CC)[C@@H](C)CC

Target: human glucagon-like peptide 1 receptor (GLP-1 R) (human, UniProt P43220 24-463)
Experiment: cell-based or functional assay

| EC50 GLP-1 (nM); cAMP response | Binder |
| --- | --- |
| 0.056 nM | B1 |
| 0.57 nM | B2 |
| 1.8 nM | B3 |
| 2.2 nM | B4 |
| 0.14 nM | B5 |
| 0.32 nM | B6 |

Target: T1, human GLP-2 receptor (hGLP2-R)
Experiment: cell-based or functional assay

| EC50 GLP-2 (nM); cAMP response | Binder |
| --- | --- |
| 0.056 nM | B1 |
| 0.086 nM | B2 |
| 0.087 nM | B3 |
| 0.099 nM | B4 |
| 0.11 nM | B5 |
| 0.085 nM | B6 |
